Assay: label from the status in PepcDB records

Protein production, failed:
MTIVVSRKFLAILARAIEGEVATDTIFTLLGLKVVVTLASLLPASVFLSVLMVLGRMYRDNEMTVFACAGVGPLRIYRSILLFAGPVCVLGAFLSLQAMPWSERLSQELISKDEKGADVRGIKAGRFNEFSQGDVVLYAEQLNTDKTMSRVFAQSRRGDETGIVIAESGHMEINDAGDHFVVLNNGRRYQGVPGRADFVLNEFQAYGVRINPPEGSQAALKREAADSLHLWMSGRPRELAELQRRLAVPLGTFTLTLLAVPIARTSPRGGVWGNLISAFLIYIIYENLQKISQGLLATGKLSVWTSYAGIYAVMLLATSVLLARNSGWRWVRDTALGRR
MTKAMTAHDYLPLIEKIRKRISSWTGRFLSYCGRLQLIKSVLMSITNFWSSAFRLPGNCMKEIERLCSAFLWSGPDLKTHNAKIAWSKVCLPMCEGGLGLRPLKEINTVCGLKLIWRLLASQTSLWGQWVQTYLIRRNNFWAIKASSYQGSWMWRKLLTLRDVARSFHKKEIHNGRNTSFWYDHWSSMGTLVDVLGARGCIDLGITTTTNMENVFTTRRSRKHRGDLLVRIEAEIEAAKTRHQPDIEDIDLWKPSTGYKKTFSTRETWKLIRMAEPVCEWAKGVWFPKPHQNLLSLLGWVCTIVFQQGTECKSGTAKLTLLAFSAKTLWKQEITYSSTVTTPIKFGKL
MTKHFLPRRTRKRRPEPLVKVRIDPPKLPKIRLLPRRAPRPRRPEPLVKVRIDPPRIRLPRIRRPRLTPFRERNPVVIGAVGLTFLALLTVAAFNADSLPLIGGGETYSAAFSEAGGLKPGDEVRIAGVKVGKVKDVDLDGDHVKVTFKIKGDPGFGTETGASIRVKTILGAKYLALRPKGPGQLKPGSEIPLKRTVPAYDVVQAFSDLTTTTEKVDTDQLAKALDTISTTFQDSPAEVRASIKGLSKISRTVASRDKALGELLDHANGVTGVLAEHSEDFTALVKDGGKLFKEISKRRKAIHKLLKSSAALGIELSGLVEDNDKEIGPALKGLNRVVQMLERNQSSLDRSVKLLAPYVRVFTNALGNGRWFDSYVQNLVAAPVVPRTGGAQ
MTKHIPLQATSACAAVPPSAVLDSAHLGEIRGALGTIAADDRAPRRTLKARLQTLLAIAGPGLIVMVGDNDAGAFGTYTQAGQNYGTTLLWTLLLLIPVLYVNQEMVVRLGAVTGVGHARLIFARFGKFWGAFSVADLFLLNALTLVTEFIGISLALQYLGLSQFWGVIAAAVIITFAVSTGDFRRFERFALLLVAGSLLLIPVAVMVHPPLPQLAHDFFVPKMPAGAPLGEVMLLIIAIVGTTIAPWQLFFQQSYLIDKRITPRFIRYERWDLCVGIALVIIGAVAMIGFSAAAFAGRPEFGAYTDALGTAHGLEQAAGRLPAILFALALLDASIIGAAAVSLATAYAIGDVFAVAHSLHRKPSEAKGFYAVYAGLIAFAAALVVTPGMPLGLLTNAVQTLAGVLLPSATVFLLLLCNDKAVLGPWVNRRAGNLFTGAIVAVLVLLSVILTVSVLFPGVGETTILGILGGGVVGALLLSGAVALIARRGQGVRAEPPARSVVAPEEWRMPLLATLPPARLSAVSRTWLLVLRGYLVLAAGLVLYRIVELIAR
MTKIMIIGANGGIAKKLTQRLLAETDDELVLFLRRAERLAQYREQPRVTLIDGNVLDTDELATAMAPVDIVYSNVGGTDLAAQTKSILAAMARTQRQRLIFISALGAHHEVPGKFGAWNEQAIADFLPGFREAARLLSASELVYTEIRPAWLTDVAEIDYELTTGAEPFKGTEVSRASVADLVFKLMAHPENYQRVSLGVDEPGTAGDRPSWLLEHHHHHH
MTKQDIRVALTIVALVLGLGWAIGYGIGLMTRPASVVPENPPHDALKSPARKAPRSGAVSGDTRYPDYEELYVNDYADLLDPAAEDRLRDKLIALYGHNGVEMTVLTIDTMGTYGHGGAIEPFATGLFNNWGIGDAERNDGVLVLIVRFDRKMRIEIGAGYERAWDARMQRVIDAGFLPYFRRDEYQEGIEAGVDETIRELTGAYPGAWDMGTAQRGWSWLARAVDRIGEWVLSLLLVPLGGAALWVRRYLRNRTRPCAQCRTPMLRAGEEADDEHLDGGQRLEEYLKSVDYDVWHCPDCGHIDIHRYKSWFSGYGACPQCNYRTLSTTSTVLSAATKTREGRKRVEYDCAHCGHHDSEIRTIPKISDSNSGGSGRSSFGGGSSSGGGASGSW
MTKSHSQDQESTLLRLEHAQAILQRDAALAHIEHMRRSRSWRLTRPLRMLMQLLRHGVINDESEYPTHLPSLVQPLPASIPLEPDIVEDSTSGSAAQHFDLLCFANIDWSARFQRPQQLMTQFAIQGYRVFYIILSPLPAAERPYTAHPVAPGVFEITLRGHARQDYYATCITEGNLRANAEALQALVSDYRIKTAVSVVHLPYWTRLALHLRKAYGWPVQYDCMDEWQDFPNIGQPLLAQEQVLVEQADLVTVTASVLYDKWASTSRRCQLVRNGVDFDFFARCCTPNTLLEELQGPIIGFYGALAEWVDFELVAAIARQRPEWNLVLIGDVFVRDLAGLDRLPNVHLLGRKPYSQMPQYLYHFDVCIIPFRLYNVTHAVDPVKFYEFISAGKPVVAVPLLEMQIYEPYLYFADGPSAFVTQIERALGETDLQRWDQRLALARENDWRQRFEDTRDALVELFPKVSVIIVTYNNVQLTRGCIDSLLRNCAYPNLQLIIVDNASQDSTRNYLRYLARSEPNVSIVLNEQNLGFAAANNQGLRLAQGHYLVLLNNDTVVPKGWLAPLLRHLDDPEVGLVGPTTNAVGNEARVSIDYQDLDDMEDFADRRASQYRGRCFDIPMLAMFCVAMRREVLDQVGWLDEAFGIGMFEDDDYSRRVQAAGLRTVCAEDSYIHHYGQASFKALIASGEYQRLWDKNQAYFESKWGPWQPHRQARRRANADATKMKLTD
MTKTSSGLKIMFRKIKLEVVRMDLSTIFASLLGLFLSLLTTGVYRYYSKPKIHKTVGVVILNPDKVDAKKIPPNLPEGLRRVTNSLEQELVLKLKKDQQKKAMLLIKISIIGIIISTIGLILGQ
MTKVHPKFPSTCEESLCDSKAAVVLTVWKKSLLFNCDGFTVYNANGELVFRVDNYMNCPRDNIVLMDASGFPLLSIRRKKLSLGDCWMVYDGETERDPIFTARKNVSIISNRKSLAWVSAKKTVLYEIEGSYGQRSCKILDERRNKKKTAEIKRKETVIGGVAFGKDVYKLIVESEMEPRVAMALTIILDQMFRSS
MTKYGVVGTGYFGAELARFMSKVEGAKITAIYDPVNAAPIAKELNCVATATMEALCTHPDVDCVIIASPNYLRKAPVIAAAKAGKHVFCEKPIALNYQDCKDMVDACKEAGVTFMAGHVMNFFHGVRHAKALIKAGEIGEVTQVHTKRNGFEDVQDEISWKKIRAKSGGHLYHHIHELDCTLFIMDETPSLVSMAAGNVAHKGEKFGDEDDVVLITLEFESGRFATLQWGSSFHYPEHYVLIEGTTGAILIDMQNTAGYLIKAGKKTHFLVHESQAEDDDRRNGNISSEMDGAIAYGKPGKRTPMWLSSIMKLEMQYLHDVINGLEPGEEFAKLLTGEAATNAIATADAATLSSNEGRKVKLTEILG
MTLAPPLPHSNSPCSPCCMDPLLRHGFCLDMSGEIYPVIRLPCSGAAKGVHVMIRFIVKLLLCALVLLPLPAFATSGADTGPDNRLLRMGVRAHGGFTRLSMAFERDIAPVLHQLSGNRVRLVFSNTVGGRWKKLRSYRDAHVEGVVVAPRGNDLMVTVTIKGDPRGVRVSTSPGAGVVSLDVGASLAPRRSPPLAQGREGIKVGVEQLITTFDPPFKSEIPFTPTDRRVLEAMVPPAEAALIMDGEAALYEGNGSEAAEIFAGIGTNSPGRPLALYRLGEANYLLQKYGDALRFFREAERQWPVFLTRSPSTAFCYADSVARSGDLAGGRRLLGSLIAGLADKKYAPALLVRMADILARQGKDQEALAIYRNVADNFTGSKGSWQARMKLADRRLLALEPAAYSSLVKDYLEIYERGTDFGLREQGLFKAALLLSLYGDADQAFARVAEYEKKFPRGMYVSIAKGMREELLVPVYRRITRAGDNEALVKLALENRDYLGRVLAEDDFIKNLSAAFADLGRIKEEVGLYANLAIREQNRVYAPELYRRILHDAEQLGDPTLMEKAAGEFVERFPAHPWVQRFREELAAVEYNRGDFQRVVGRLSGMLASGTRPEYAESLYYLGKSLDASGNRRDAERAMLLFLAELRRREMSSPLAADASYVAATARLSRGDRKGAKEILRAAGEASPEERDPFLYKLGEIARSEGRYEEAAHYLRTVVKEGKDPDWRDMASRLLADMELTGMVRKSK
MTLAPRHLRIEQRGRVLQVLLDNPPANFLTTAVMQELADLLEDLEQRQDIGAVILSGAADGVFLTHFDVDEIERAVAPITFSMPAWLTRLLLESESLLRHLPGARKLLRRTLLAGVADMNLFHEVTAHMRRMDKVFIAAINGLALGGGCELALACDLRLMAEDDQVERFLGQPEVLIGLIPGGGGTQMLARSLGVARALELCLEGQLLEPRQALALGLVNGLAPAEELLEAADALAQRLSRRSPQAVRLIKRSIYQAASRDWTEGMASEKAGFLSAASQGNTRRAMREYIERVRTITREERPFRRADFDDLTEGNAID
MTLDNRAFLKQSSKKLLFRFAVPAIFSLLVNELYNMVDTVFAGRYIGENAIGAMTIAFPIQKILIAMGLLIATGASTYAARVIGEKNYKELKKIVINSCALTIVSIISISFIIFQFKSSILYSLGASDNTYPMAVQYISIILFGSIFMCLASVMSYIMVSLGKTKTLLYTNIVGVLLNIILNYVLVIQLHMGIRGSGIATVLSQLAAFVVALVQFAYMNKKQNFKFFENISTNIISGDIIREIVLVGFSTFIIEIADAVVSAVLNNVLYAGGGDSAIIMLGVITKVYMFMFITVIGISSGMQPIVGYNFGAGNYKKAKDILKFSLKTVIIISAFVWVGFIIWAQPLIGFFLKDAQLVSKTVSAFRIVISMLPLLGIYYVAIYYYQAIGEARISFILSIYRELIMFIPMAVILFKIVGINGVFIAYPLTDIIVILTSVYFIRRAFKEQFAEESIPKRVGARA

Protein production, not failed:
MTKAETSIGVFYVSEYGYSDRLAQAIINGITKTGVGVDVVDLGAAVDLQELRELVGRCTGLVIGMSPAASAASIQGALSTILGSVNEKQAVGIFETGGGDDEPIDPLLSKFRNLGLTTAFPAIRIKQTPTENTYKLCEEAGTDLGQWVTRDRSIKAMKSLGLEHHHHHH
MTKIIPVASGKGGVGKTSFVANVGYKLSSLGKTVILVDLDLGGSNLHTCLGVKNKGVGIGSFINKKSKSFSDLVCKTSYDKLYLIPGDALYTGTANLPFSIKKKIIESIQKDLIADFIFLDLGSGTSYNTIDFYLASYSGVIVTIPETPSILNAYSFLKNALYRLLYLGFPQKSPERDYIGNFFKDKIEGTNLGFKDLVVGIELISLSSSLKVKRMMNNFYPRVVLNRIETSEEIAMCENLINVVKNNINIPIEFIGFVPFAKSFREAINNRVPFIDFEKNSKLNKYFEFIAGNLIKSPIEGSPYIYDDIYDMIKDQSRFIRKLEHHHHHH
MTKSQQKVSSIEKLSNQEGIISALAFDQRGALKRMMAEHQSETPTVEQIEQLKVLVSEELTQYASSILLDPEYGLPASDARNNDCGLLLAYEKTGYDVNAKGRLPDCLVEWSAKRLKEQGANAVKFLLYYDVDDTEEINIQKKAYIERIGSECVAEDIPFFLEVLTYDDNIPDNKSAEFAKVKPRKVNEAMKLFSEDCFNVDVLKVEVPVNMNFVEGFSEGEVVYTKEEAAQHFRDQDAATHLPYIYLSAGVSAELFQDTLKFAHDSGAQFNGVLCGRATWSGAVKVYIEEGEQAAREWLRTVGFKNIDDLNTVLKTTATSWKNK
MTKTKFEKVLLIVNPKAGQGDLHTNLTKIVPPLAAAFPDLHILHTKEQGDATKYCQEFASKVDLIIVFGGDGTVFECTNGLAPLEIRPTLAIIPGGTCNDFSRTLGVPQNIAEAAKLITKEHVKPVDVAKANGQHFLNFWGIGLVSEVSNNIDAEEKAKLGKIGYYLSTIRTVKNAETFPVKITYDGQVYEDEAVLVMVGNGEYLGGIPSFIPNVKCDDGTLDIFVVKSTGIQAFKDYIGKKLFEDSNENDIFHVKAKSIHIETEEEKEVDTDGESSLHTPCQIELLQGHFTMIYNPAVV

From a protein production outcome set (Wang et al. 2014)
